Publication PMC4300205, “Human Cerberus Prevents Nodal-Receptor Binding, Inhibits Nodal Signaling, and Suppresses Nodal-Mediated Phenotypes” (PLoS ONE, 2015)

B4: recombinant human Nodal (ligand, UniProt Q96S42 238-347, looked up)
chain: HHLPDRSQLCRKVKFQVDFNLIGWGSWIIYPKQYNAYRCEGECPNPVGEEFHPTNHAYIQSLLKRYQPHRVPSTCCAPVKTKPLSMLYVDNGRVLLDHHKDMIVEECGCL
notes: Nodal, human, recombinant (RnD Systems); source: bought: RnD Systems

Experiments:
Experiment in all cases: SPR; Biacore 2000; 200-300 RU of Fc fusion captured by anti-human IgG (Fc) antibody on a CM5 chip; concentration series of ligand injected at 50 ul/min; 25 C; HBS-EPS (0.01 M HEPES, 0.5 M NaCl, 3 mM EDTA, 0.005% Tween 20, pH 7.4); 1:1 Langmuir model with mass transport; Kd = kd/ka
Human Cerberus-hIgg-Fc [1] = molecular target: T1, Human Cerberus-hIgg-Fc (human, UniProt O95813 18-267); conditions: both partners purified
T1 construct: signal peptide in the construct; also called Cerberus-Fc; full-length Cerberus-Fc; source: CHO cells, purified from conditioned medium (Protein A, SEC); not shown: Fc (human IgG1), C-terminal, kept
T1 sequence (looked up): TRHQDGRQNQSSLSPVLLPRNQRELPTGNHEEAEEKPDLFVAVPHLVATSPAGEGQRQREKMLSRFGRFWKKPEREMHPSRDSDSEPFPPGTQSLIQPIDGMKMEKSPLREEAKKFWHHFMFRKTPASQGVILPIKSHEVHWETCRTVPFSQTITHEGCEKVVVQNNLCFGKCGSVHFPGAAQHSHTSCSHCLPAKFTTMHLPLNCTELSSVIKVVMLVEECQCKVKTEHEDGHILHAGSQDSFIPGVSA

Recombinant Activin A = molecular target: T2, Recombinant Activin A (human, UniProt P08476 311-426); conditions: both partners purified
T2 construct: Activin A (inhibin beta A chain), recombinant; source: bought: R&D Biosystems or Life Technologies; also produced in-house
T2 sequence (looked up): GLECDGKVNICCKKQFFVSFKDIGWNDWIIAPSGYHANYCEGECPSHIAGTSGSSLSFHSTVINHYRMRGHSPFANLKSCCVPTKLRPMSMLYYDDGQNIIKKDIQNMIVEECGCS

recombinant human Nodal = molecular target: B4; conditions: both partners purified
Human Cerberus-hIgg-Fc [2] = molecular target: T1, Human Cerberus-hIgg-Fc; conditions: both partners purified; remark: listed apart in the source
human Cryptic-hIgg-Fc = molecular target: T3, human Cryptic-hIgg-Fc (human, UniProt P0CG37 26-158); conditions: both partners purified
T3 construct: signal peptide in the construct; human Cryptic (1-158), joined to human IgG1 Fc by a 22 amino acid linker with a TEV site, a glycine/serine rich region and a FLAG-tag; Synthetic gene from GeneArt; also called Cryptic-Fc; source: CHO cells, purified from conditioned medium (Protein A, SEC)

BMPRII-Fc = molecular target: T4, BMPRII-Fc (human, UniProt Q13873 27-150); conditions: both partners purified
T4 construct: type II receptor BMPRII, human, extracellular domain-Fc fusion; Bought protein; source: bought: R&D Biosystems or Life Technologies
T4 sequence (looked up): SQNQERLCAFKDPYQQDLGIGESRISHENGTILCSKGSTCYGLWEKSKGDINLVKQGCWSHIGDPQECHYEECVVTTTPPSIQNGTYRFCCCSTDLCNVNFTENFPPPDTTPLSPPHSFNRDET

Cripto-1-Fc = molecular target: T5, Cripto-1-Fc (human, UniProt P13385 31-151); conditions: both partners purified
T5 construct: signal peptide in the construct; Cripto1 (1-151), amplicon from cDNA (Thermo Scientific) fused to the hIgg1-Fc domain by PCR; source: CHO cells, purified from conditioned medium (Protein A, SEC)
T5 sequence (looked up): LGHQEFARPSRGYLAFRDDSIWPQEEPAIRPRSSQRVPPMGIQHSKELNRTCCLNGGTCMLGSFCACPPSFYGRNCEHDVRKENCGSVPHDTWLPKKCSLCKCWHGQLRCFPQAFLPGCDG

[3] = molecular target: T6, Human Cerberus-hIgg-Fc (human), O95813; conditions: remark: other sources report otherwise
T6 chain: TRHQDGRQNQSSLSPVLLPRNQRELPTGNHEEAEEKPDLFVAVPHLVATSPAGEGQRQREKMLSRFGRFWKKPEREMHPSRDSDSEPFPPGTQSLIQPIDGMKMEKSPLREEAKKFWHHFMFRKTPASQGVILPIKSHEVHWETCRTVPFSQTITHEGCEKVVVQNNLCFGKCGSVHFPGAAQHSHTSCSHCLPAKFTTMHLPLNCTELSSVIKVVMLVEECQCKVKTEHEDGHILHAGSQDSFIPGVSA

T3 sequence (P0CG37 26-158): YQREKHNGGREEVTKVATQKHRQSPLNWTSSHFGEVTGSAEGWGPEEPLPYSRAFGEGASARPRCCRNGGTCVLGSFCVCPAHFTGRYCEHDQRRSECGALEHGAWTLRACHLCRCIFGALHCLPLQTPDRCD

B1: Recombinant GDF-11 (ligand, human, UniProt O95390 299-407, looked up)
chain: NLGLDCDEHSSESRCCRYPLTVDFEAFGWDWIIAPKRYKANYCSGQCEYMFMQKYPHTHLVQQANPRGSAGPCCTPTKMSPINMLYFNDKQQIIYGKIPGMVVDRCGCS
notes: GDF-11, recombinant; source: bought: R&D Biosystems or Life Technologies
With B1 the Kd (Human Cerberus-hIgg-Fc [1]) was 5800 nM, the koff (Human Cerberus-hIgg-Fc [1]) was 0.014 s⁻¹ and the kon (Human Cerberus-hIgg-Fc [1]) was 1200 M⁻¹ s⁻¹.

B2: human ACTRIIB-hIgg-Fc (Fc fusion, UniProt Q13705 19-120, looked up)
chain: SGRGEAETRECIYYNANWELERTNQSGLERCEGEQDKRLHCYASWRNSSGTIELVKKGCWLDDFNCYDRQECVATEENPQVYFCCCEGNFCNERFTHLPEAG
notes: signal peptide in the construct; extracellular domain of human ActRIIB (1-120), joined to human IgG1 Fc by a 22 amino acid linker with a TEV site, a glycine/serine rich region and a FLAG-tag; Synthetic gene from GeneArt; also called ACTRIIB-Fc; source: CHO cells, purified from conditioned medium (Protein A, SEC)
For B2, the Kd (Recombinant Activin A) was 0.018 nM, the koff (Recombinant Activin A) was 2.7e-05 s⁻¹ and the kon (Recombinant Activin A) was 1.5e+06 M⁻¹ s⁻¹. It also gave a Kd (recombinant human Nodal) of ~10 nM, a koff (recombinant human Nodal) of ~0.00049 s⁻¹ and a kon (recombinant human Nodal) of ~49000 M⁻¹ s⁻¹.

B3: human ALK4-hIgg-Fc (Fc fusion, UniProt P36896 24-110, looked up)
chain: SGPRGVQALLCACTSCLQANYTCETDGACMVSIFNLDGMEHHVRTCIPKVELVPAGKPFYCLSSEDLRNTHCCYTDYCNRIDLRVPS
notes: signal peptide in the construct; extracellular domain of human ALK4 (1-110), joined to human IgG1 Fc by a 22 amino acid linker with a TEV site, a glycine/serine rich region and a FLAG-tag; Synthetic gene from GeneArt; also called ALK4-Fc; source: CHO cells, purified
In the case of B3, the Kd (Recombinant Activin A) is reported as 2.4 nM, the koff (Recombinant Activin A) is reported as 0.00048 s⁻¹ and the kon (Recombinant Activin A) is reported as 200000 M⁻¹ s⁻¹. The Kd (recombinant human Nodal) was ~15 nM, the koff (recombinant human Nodal) was ~0.00032 s⁻¹ and the kon (recombinant human Nodal) was ~46000 M⁻¹ s⁻¹.

Binder B4 has a Kd (Human Cerberus-hIgg-Fc [2]) of 1 nM, a Kd (human Cryptic-hIgg-Fc) of 2000 nM and a koff (human Cryptic-hIgg-Fc) of 0.001 s⁻¹. For the same binder, the kon (human Cryptic-hIgg-Fc) was 550 M⁻¹ s⁻¹, the Kd (BMPRII-Fc) was 0.149 nM and the koff (BMPRII-Fc) was 4.6e-05 s⁻¹. For the same binder, the kon (BMPRII-Fc) was 310000 M⁻¹ s⁻¹, the Kd (Cripto-1-Fc) was 16 nM and the koff (Cripto-1-Fc) was 0.00026 s⁻¹. For the same binder, the kon (Cripto-1-Fc) was 10000 M⁻¹ s⁻¹, the Kd (Human Cerberus-hIgg-Fc [1]) was 1.1 nM and the koff (Human Cerberus-hIgg-Fc [1]) was 1.4e-05 s⁻¹. It also gave a kon (Human Cerberus-hIgg-Fc [1]) of 13000 M⁻¹ s⁻¹.

B5: Recombinant BMP-2, P12643 283-396 (ligand)
chain: QAKHKQRKRLKSSCKRHPLYVDFSDVGWNDWIVAPPGYHAFYCHGECPFPLADHLNSTNHAIVQTLVNSVNSKIPKACCVPTELSAISMLYLDENEKVVLKNYQDMVVEGCGCR
B5 showed a Kd [3] of 3000 nM, a koff [3] of 0.072 s⁻¹ and a kon [3] of 24000 M⁻¹ s⁻¹.
